In the nanobody polyreactivity screen of Harvey et al. (2022):

Assay: yeast display, Sf9 membrane polyspecificity reagent, FACS + sequencing; frameworks hold sequencing errors
Procedure, shortened: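 In a synthetic yeast display library (Saccharomyces cerevisiae BJ5465), nanobody expression was induced with galactose for 36–48 hours. FACS gates were set low and high (top ~1%) using anti-HA fluorescence for expression and streptavidin fluorescence for binding of the Sf9 membrane reagent. Each polyreactivity label is drawn from the gate of origin.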

Sequence	polyreactivity (PSR sort gate)
QVQLVESGRGIVQAGGSLRLSCAASGSIFWLYAMGWYRQAPGKERELVAAISWSGTSTNYADSVKGRFTISRDNAKNTVYFQMNSLKPEDTAVYYCAKRWYNQKLFGYEEEYDYWGQGTQVTVSS	low polyreactivity
QVQLVESGGALVQAGGSLRLSCAASGLTFRDNAIGWYRKAPGKERELVDAISTNGGSTYYADSVKGRFTISRDNAKNTVYLQMYSLKPEVTAVYYCAADYDYQYRYYYWGQGTQVTVTS	low polyreactivity
QVQLVESGGGLVQAGGSLRLSCPASGSIFPHYAMGWYRQAPGKERELVAAISRSGTSTYYADSVKGRFTISRDNAKNTVYLQMNSLKPEDTAVYYCNAYQVYTRTYGYWGQGTQVTVSS	high polyreactivity
QVQLVESGGCLVQAGGSLRLSCAASGSIFGGNAMGWSRQAPGKEREFVAAITVSDGSTYYADSVKGRFTISRDNAKKTVYLQMNSLKPEDTAVYYCAAGGFYYPHYDYWGQGTQVTVSS	low polyreactivity
QVQLVESGGGLVQAGGSLRLSCAASGSTFYYYAMGWYRQAPGKERELVATISSGSSTNYADSVKGRFTISRDNAKNTVYLQMNSLKPEDTAVYYCATDGDPAYPEMEYWGQGTQVTVSS	low polyreactivity
QVQLVESGGGLVQAGGSLRISCAASASIFPGYAMGWYRQAPGKERELVAAISWSGGRTYYADSVKGRFTISRDNSKNTFYLQMNSLKPEDTAVYYCAARKYHLRSAYDYWGQGTQVTVSS	low polyreactivity
QVQLVESGGGLVQAGGSLRLSCAASGSTFPRYAMGWYRQAPGKERELVAAISGRGGSTYYADSVKGRFTISRDYAKNTVYLQMNSLKPEDTAVYYCNAYRRYYTMYYWGQGTQVTVSS	high polyreactivity
QVQLVESGGGLVQAGGSLRLSCAASGRIFGLYAMGWYRQAPGKERELVAAISRGGGSTYYADSVKGRFTISRDNAKNTVYLQMNSLKPEDTAVYYCATGLGYFSRLDYWGQGTLVTVSS	low polyreactivity
QVQLVESAGGLVQAGGSLRLSCAASGSIFSDNPMGWYIQAPGKERALVASITNSGSTNYADSVKGRFTISRDNAKNTVYLQMNILKPEDTAVYYCAFSFLYTYDNWGQGTQVTVSS	low polyreactivity
QVQLVESGGGLVQAGGSLRLSCAASGIIFLWYAMGWYRQAPGKERELVAAITSGGSTYYADSVKGRFTISRDNAKNTVYLQMNSLKPEDTAVYYCAAVNGWRRVKRFDYWGQGTQVTVSS	high polyreactivity
QVQLVESGGGLVQAGGSLRLSCAASGSTFGLYGMGWYRQAPGKDRELVAAITWSGGSTYYADSVKGRFTISRDNAKNTVYLQMNSLKPEDTAVYYSNADYYYWFSYGIGDNEYDYWGQGTQVTVSS	low polyreactivity
QVQLVESGGGLVQAGGSLRLSCAASGRTFHYYAMGWYRQAPGKERELVAGISRRGGSTSYADSVKGRFTISRDNAKNTLYLQMNSLKPEDTAVYYCNADRVTFSWPVNYYWVDYWGQGTQVTVSS	high polyreactivity
QVQLVESGGGLVQAGGSLRISCAASGSTLYRNAMGWYRQAPGKEMELVAAISSSGGTTFYADSVKGRFTISRDNAKNTVYLQMNSLKPEDTAVYYCNRNARKLRTVHSSVFGLDYWGQGTQVTVSS	low polyreactivity
QVQLGESGGGLVQAGGSLRLSCAASGSTIRRYTMGWYRQAPGKERELDAAITGSGGSTYYADSVKGRFTISRDNAKNTVYLQMNSLKPEDPAVYYCAAPPWRRIVGGIYDYWGQGTQVTVSS	high polyreactivity
QVQLVESGGGLVQAGGSLRLSCAASGRTFVPNAMGWYRQAPGKERELVAAISDSGGSTYYADSVKGRFTISRDNAKNTVYLQMNSLKPEDTAVYYCATDVTTYVGWEHGFNYWGQGTQVTVSS	low polyreactivity
QVQLVESGGGLVQAGGSLRLSCAASGSIFGYYAMGWYRQAPGKERELVAAITSGGNTYYADSVKGRFTISRDNAKNTVYLQMNSLKPEDTAVSYCAAEFWYTYPYLVDYWGQGTQVTVSS	low polyreactivity
QVQHVESGGGLVQAGGSLRLSCAASGSTFVQNAMGWYRQAPGKERELVAAISRSGGRTYYAYSVKGRFTISRDNAKNTVYLQMNSLKPEDTAVYYCAARYPVRPDDGYWGKGTQVTVSS	high polyreactivity
QVQLVESGGGLVQAGGSLRLSCAASGRTFPYYTMGWYIQAPGKERELVAAIDGSGDNTYYADSVKGRFTISRDYAKNTVYLQLNSLKPEDNAVYYCTAEQWWSLDYWGQGTQVTVSS	low polyreactivity
QVQLVESGGGLVQAGGSLRLSCAASGSTFCRNAMGWYRQAPGKEREFVAVISISSGTTYADSVKGRFTISRDNAKNTVYLQMNSMKPEDTAVYYCAAAIGVYYIDYRYLGTVEYWGQGTQGTVSS	low polyreactivity
QVQLVESGGGLVQAGGSLRLSCAASGSTFYYNVMGSYRQAPGKERELVAAITLSGGSTYADSVKGRFTISRDNAKKTVYLQINSLKPEDTAVYYCAKKGRYGRWGYKFDYWGQGTQVTVSS	low polyreactivity
QVQLVDSGGALVQAGGSLRISCAASGYIFSYKAMGWYRQAPGKERELVAAITSGGSTNYADSVKGRFTISRDNAKNTVYLQMKSLKPEDTAVYYCAAERGDTAYRKYDYWGQGTQVTVSS	low polyreactivity
QVQLVESGGGLVQAGGSLRLSGAASGRTLYGYAMGWYRQAPGKERELVARITGRDGSTDYADSVKGRFTISRDNAKNTVYFPMNSLKPEETAVYSCNARVRFHWYRSDYWGQGTEVTVSS	high polyreactivity

Sequence	polyreactivity (PSR sort gate)
QVQLVESGGGLVQAGGSLRLSSAASGLTFHRYAMGWYRQAPGKERELVAGISWSGASTYFADSVKGRFTISRDNAKNTVYLQMNSLKPEDTAVYYCAAVVPGLAYYRHGYWGQGTQVTVSS	high polyreactivity
QVQLVESGGGLVQAGGSLRLSCAASGFTFITNAMGWYRQAPGNERELVASISIGGSTNYADSVKGRFTISRDNAKNTVYLQMTSLKPEDTAVYYCAARVYRRLFLPGRYGRPLGYWGQGTQVTVSS	high polyreactivity
QVQLVESGGGLVQAGGSLRLSFAASGQTFRWNAMGWYRQAPGKERELFAAISRGDRTNYADSVKGRFTISRDNAKNTVYLQMNSLNPEDTAVYYCAKTYQTNYYNGTWGVTSYGYWGQGTQVTVSS	high polyreactivity
QVQLVESGGGLVQAGGSLRLSCAASGRTFDRNAMGWYRQAPGKEREVVAAISSSSGSTYYADSVKGRFTISRDNAKNTVYLQMNSLKPEDTAVYYCATVRWYYSRPRPTTAYGYWGQGTQGTVSS	high polyreactivity
QDQLVESGGGLVQAGGSLRLSCAASGRIVSDYAMGWYRQAPGKERELVARISRSDGSSYYADSVKGRFTISRDNAKNTVYLQMNSLKPEDTAVYYCAAQWTDGRRDHWWDKGFYYWGQGTQVTVSS	low polyreactivity
QDQLVESGGGLDQAGGSLRLSCAASGFTFYNYAMGWYRQAPGKERELVAAISWNGGSTYYADSVKGRFTISRDNAKNTVYLQMNSLKPEDTAVYYCNADISQRTRGYYYVWWSRMDYWGQGTQVTVSS	low polyreactivity
QVQLVESGGGLVQAGGSLRLSCAASGSTFSPYAMGWYRQAPGKERELVAAISSSGGSTYYADSVKGRFTISRDNAKNTVYLQMNSLKPEDTAVYYCRSFTSAQTLDYWGQGTQVTVSS	high polyreactivity
QVQLVESGGGLVQAGGSLRLSCAASGSTFAYNDMGWYRQAPGKERELVADIRSGGNTNYADSVKGRFTISRDNAKNTVYLQMNSLKPEDTAVYYCATDGYRIDVYHPDYRYDYWGQCTQVTVSS	low polyreactivity
QVQHVESGGGLVQAGGSLRLSCAASGSTFTSYALGWYRQAPGKERELVAAISKSGGSTYYADSVKGRFTISRDNAKNTVYLQMNSLKPEDTSVYYCAASYNVRSYSTSRFDYWGQGTQVTVSS	low polyreactivity
QVQHEESAGGLVQAGGSLRVSCAASGIIFYDYAMGWYRQAAGKERELVAAITSVGSTNYADSVKGRFTISRDYAKNTVYLQMISLKPDDTAVYYCDAEVYVPDYFQHIFDVEYEYWGQGTQVTVSS	low polyreactivity
QVQLVESRGGLVQAGGSHRLSCAASGITILQYAMGWYRQAPRKERELVAAISRRGGNTYYADSVKGRFTISRDNAKNTVYLQMNSLKPEDTAVYYCAALSSFQSEYDYWGQGTQLTVSS	high polyreactivity
HVQLVESGGGLVQAGARLRLSCAASGITFFYYAMGWYRQAPGKERELVAAINWSGRTYYADSVKGRFTISRDNAKNTVYLQMNSLKPEDTAVDYCAAVTYGPGVSGMDYWGQGTQVTVSS	low polyreactivity
QDQLVESVVGLDQAGVSLRLSSAASGRTFRKYAMGCSRQAHGKERELVAAITSSGARTYYADSVKGRFTISRDNAKNTVYLQMNSLKPEDTAVYYCNAVSPYYGIEFEYWGLGTQVTVSS	high polyreactivity
QVQLVESAGGLVQAGGSLRLSCAASGRTFYSYAMGWSRQAPGKEREFVAAITKSGGSTYYADSVKGRFTISRDNAKNTVYLQMNSLKPEDTAVYYCAAGLVATFSRPGRASYRYNYWGQGTQVTVSS	high polyreactivity
QVQLVESGGGLVQAGGSLRLSCAASGSIFGTYAMGWYRQALGKERELVASIRFNGRTFYADSVKGRFTISRDNAKNTVYLQMNSLKPEDTAVYYCAAQTWYGFPNYYWGQGTQVTVSS	high polyreactivity
QVQLVESGGGLVQAGGSLRLSCAASGFTFDINTMGWYRQAPGKERELVAAITYSGGSTYYADSVKGRFTISRDNAKNTVYLQMNSLKPEDTAVYYCATTWYFVASWYVAIYDYWGQGTQVTVSS	low polyreactivity
QVQLVESGGGLVQAGGSLRLSCAASGSPFFPYAMGGYRQAPGKERELVAGISSDGGTSYADSVKGRFTISRDNAKNTVYLQMNSLKPEDTAVYYCAKETIGQDPVSGAWARHEYDYWGQGTQVTVSS	low polyreactivity
QVQLVESGGGLVQAGGSLRLSCAASGSIFGFNAMGWYRQAPGKERELVAAINNGGSTNYADSVKGRFTISRDNAKNTVYLQMNSLKPEDTAVYYCAARLNYIRRGYWGQGTQVTVSS	high polyreactivity
QVQLVESGGGLVQAGGSLRLSCDAYGSTFERYVMGWYCQRLGKKGSWLPVLNHNGGSTYYADSVKGRFTISRDNAKNTVYLQMNSLKPEVTAVYYCAPSFRTVLDDGYWGQGSQVTVSS	low polyreactivity
QVQLVESGGGLVQAGGSLRLSCAASGSTFAFNAMGWYRQAPGKERELVAGITWSSGSTYYADSVKGRFTISRDNAKNTVYLQMNSLKPEDTAVYYCAVSGTRTIWGQGTQVTVSS	high polyreactivity
QVQLVESGGGLVQAVGRLRLSCAASGITLSLYAMGWYRQATGKETELVAAISRGGGRTYYADSVKGRFTISRDNAKNTVYLQMNSLKPEDTAVYYCNKGRNPGPAYFASVDYWGQGTQVTVSS	high polyreactivity
